Assay: yeast display, Sf9 membrane polyspecificity reagent, FACS + sequencing; frameworks hold sequencing errors
Method in brief: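 In a synthetic yeast display library (Saccharomyces cerevisiae BJ5465), nanobody expression was induced with galactose for 36–48 hours. FACS gates were set low and high (top ~1%) using anti-HA fluorescence for expression and streptavidin fluorescence for binding of the Sf9 membrane reagent. Each polyreactivity label is drawn from the gate of origin.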

Sequence | polyreactivity (PSR sort gate)
QVHLVESGGGLVQAGGSLRLSCAASGRTFDDYAMGWYRQAPGKERELVAAISSSGGSTYYADSVKGRFTISRDNAKNTVYLQMNSLKPEDTAVYYCAADYDWGYWYDYWGQGTQVTVSS | low polyreactivity
QVHLVESGGGLVQAGGSLRLSCAASGRTFDRNAMGWYIQAPGKERELVAAISRNGGSTYYADSVKGRFTISRDNAKNTVYLQMNSLKPEDTAVYYCAAPRSVYDVARGDYWGQGTQVTVSS | high polyreactivity
QVHLVESGGGLVQAGGSLRLSCAASGRTFETYAMGWYRQSPGKERELVAAITTSGGTTYYADSVKGRFTISRDNAKNTVYLQMKSLKPEDTAVYYCAADPWIEDTYGSKAYYYWGQGTQVTVSS | low polyreactivity
QVHLVESGGGLVQAGGSLRLSCAASGRTFGRKAMGWYRQAPGKERELVASITKRGGSTYYADSVKGRFTISRDNAKNTVYLQMNSLKPVDTAVYYCAVEAYDYWGQGTQVTVSS | high polyreactivity
QVHLVESGGGLVQAGGSLRLSCAASGRTFGTYAMGWYRQAPGKERELVAAISSGGSTNYADSVKGRFTISRGNAKNTVYLQMNSLKPEDTAVYYCAAQGYWTYWPYLLRLYDYWGQGTQVTVSS | low polyreactivity
QVHLVESGGGLVQAGGSLRLSCAASGRTFGWNVMGWYRQAPGKERELVAAISGSGGSTYYADSVKGRFTISRDNAKNTVYLQMMSLKPEDTAVYYCAKEYPWMPRSYEYWGQGTQVTVSS | low polyreactivity
QVHLVESGGGLVQAGGSLRLSCAASGRTFGWNVMGWYRQAPGKERELVAAISGSGGSTYYADSVKGRFTISRDNAKNTVYLQMNSLKPEVTAVYYCAALYGPGREYDYWGQGTQVTVSS | low polyreactivity
QVHLVESGGGLVQAGGSLRLSCAASGRTFHYYAMGWYRQAPGKERELVAAISVSGGSTYYADSVKGRFTISRDNAKNTVYLQMNSLKPEDNAVYYCAADDYLVEHDYWGQGTQVTVSS | low polyreactivity
QVHLVESGGGLVQAGGSLRLSCAASGRTFPSYAMGWYRQAPGKERELVAAITRGGSTYYADSVKGRFTISRDNAKNTVYLQMNSLKPEDTAVYYCATRYGRARAYYYWGQGTQVTVSS | high polyreactivity
QVHLVESGGGLVQAGGSLRLSCAASGRTFRIYAMGWYRPAPGKERELVAAISRSSTSTYYADSVKGRFTISRDNAKNTVYLQMNSLKPEDTAVYYCAAVVTVQYSQPYDHWGQGTQVTVSS | high polyreactivity
QVHLVESGGGLVQAGGSLRLSCAASGRTFTRYTMGCYRQAPGKESELVAAISRRGGSTYYADSVKGRFTISRHNAKNTVYLQMNSLKPEDTAFYYCNADYVPGRPSFIYDYWGQGTQVTVSS | high polyreactivity
QVHLVESGGGLVQAGGSLRLSCAASGRTFYPFGMGWYRQATGKERELVATITYSGARTYYADTVKGRFTISRDNAKNTVYLQMNILKPEDTAVYYCAAGYYWGIGTGFDYWGQGTQVTVSS | high polyreactivity
QVHLVESGGGLVQAGGSLRLSCAASGRTFYTYAMGWYRQATGKERELVAVIRRDGSTSYADSVKGRFTISRDNAKNTVFLQKNSLKPEDTAVYYCAVTRRGEYYWGQGTQVTVSS | high polyreactivity
QVHLVESGGGLVQAGGSLRLSCAASGRTLYDYAMEWYRQAPAKERELVAGITSGDSTYYADSVKGRFTISRDNAKNTVYLQMNSLKPEDTAVYYCAADSDTFYYTGYDYDYWGQGTQVTVSS | low polyreactivity
QVHLVESGGGLVQAGGSLRLSCAASGRTYARYTMAWYRQAPGKEREMVASITRGGSTYFADSVKGRFTISRDNAKNTVYLQMNSLKPGDTAVYYCAARFPQHNYWAMDYWGLGTQVTVSS | high polyreactivity
QVHLVESGGGLVQAGGSLRLSCAASGSIFEENAMGWYRQAPGKERELVAVISTRDGRTYYADSVKGRFTISRDNAKNTVYLQMNSLKPEDTAVYYCAASPDPYWRRMDYWGQGTQVTVSS | high polyreactivity
QVHLVESGGGLVQAGGSLRLSCAASGSIFFNNAMGWYRQPPGKERELVAAINYGNGSTYYADSVKGRFTISRDNAKNTVYLQMNSLKPEDTAVYYCNADYTGTRSDSVTPEYEYWGQGTQVTVSS | low polyreactivity
QVHLVESGGGLVQAGGSLRLSCAASGSIFRGYAMGWYRQAPGRERELVAAISRSGGSTYYADSVKGRFTISRDNAKNTVYLQRNSLKPEDTAGYYCAALLRGRYRMYYWGQGTQVTVSS | high polyreactivity
QVHLVESGGGLVQAGGSLRLSCAASGSIFSGNAMGWYRQAPGKERELVAAITSSGGNTYYADSVKGRFTISRDNAKNTVYLQMNSLKPADTAVYYCAADGVYWRWYLYTFWMDYWGQGTQVTVSS | low polyreactivity
QVHLVESGGGLVQAGGSLRLSCAASGSIFTGYAMGWYRQAPGKERELVAGISWGGTSTYYADSVKGRFTISRDNAKNTVYLQMNSLKPEDTAVYYCAAKPYYFYGMDYWGQGTQVTVSS | high polyreactivity
QVHLVESGGGLVQAGGSLRLSCAASGSIFTPYAMGWYRQAPGKERELVATISWSGGRTYYADSVKGRFTISRDNAKNTVYLQMNSLKPEDTAVYYCAARGYSSEYDYWGQGTQVTVSS | high polyreactivity
QVHLVESGGGLVQAGGSLRLSCAASGSIFTVYTMGWYRQAHGKERELVAAINSRGGTTYYADSVKGRFTISRDYAKNTVYLQMNSLKPEDTAVYYCAAKQRPKSYGPVHYYWGQGTQVTVSS | high polyreactivity

Sequence | polyreactivity (PSR sort gate)
QVHLVESGGGLVQAGGSLRLSCAASGSIFVHYAMGWYRQAPGKERELVATISSSGGSTYYADSVKGRFTISRDNAKNTVYLQMKSLKPEDTAVYYCAADWTLDPSYGYYADDYWGQGTQVTVSS | low polyreactivity
QVHLVESGGGLVQAGGSLRLSCAASGSIFWANAMGWYSQAPGKERELVAAINFRATITYYADSVKGRFTISRDIAKNTFYLQMISLKPEDTAVYYCAGDSYECWYDYWGQGTEVTVSS | high polyreactivity
QVHLVESGGGLVQAGGSLRLSCAASGSIFYGNAMGWDRQATGKERELVAGISWYGGSTYYADSVKGRFTISRDNAKNTVYLQMNSLKPEDTAVYYCATVADEPRSYSGYEEYDYWGQGTQVTVSS | low polyreactivity
QVHLVESGGGLVQAGGSLRLSCAASGSIFYRNAMGWYRPAPGKERELVAAISSDGSTNYADSVKGRFTISRDNEKNTVYLQMNSLKPEDTAVYYCAAPWTQILDYWGQGNQVTVSS | low polyreactivity
QVHLVESGGGLVQAGGSLRLSCAASGSIFYSNAMGWYRQAPGKERELVAAITRGGSTHYADSVKGRFTISRDNAKNTVYLQMNSLKPEDTAVYYCNKDLNFAKYISSILYDYWGQGTQVSVSS | low polyreactivity
QVHLVESGGGLVQAGGSLRLSCAASGSIFYYNTMGWYRQAPGKERELVAGISWGGGRTYYADSVKGRFTISRDNAKNTVYLQMNSLKPEDTAVYYCNARHRRLPSNGGYDYWGKGTQVTVSS | high polyreactivity
QVHLVESGGGLVQAGGSLRLSCAASGSIIKYYAIGWYRQAPGKERELVAAISWRGGRTYADSVKGRFTISRDNAKNTVYIQMNSLKPEDTAVYYCATSSRYRYWHRYDYWGQGTQVTVSS | high polyreactivity
QVHLVESGGGLVQAGGSLRLSCAASGSILLINAMGWYRQAPGKERELVAAIRTGGSTYYADSVKGRFTISRDNAKNTVSLQMNSLKPEDTAVYYCAVRTGRRWWKFDYWGQGTQVTVSS | low polyreactivity
QVHLVESGGGLVQAGGSLRLSCAASGSILPFNAMGWYRQAPGKDRELVAAIDGSGGDTYYADSVKGRFTISRDNAKNTVYLHMNSLKPEDTAVYYCAAEYYYTSQLAKYHYGYEYWGQGTQVTVSS | high polyreactivity
QVHLVESGGGLVQAGGSLRLSCAASGSILQRNAMGWYRQAPGKERELVASITFSAGRTYYADSVKGRFTISRDNAKNTVYLQMKSLKPEDTAVYYCAADPYSYGARGARGDYWGQGTQVSVSS | low polyreactivity
QVHLVESGGGLVQAGGSLRLSCAASGSISGLYAMGWYRQAPGKETELVAAISFSAGSTYYADSVKGRFTISRDNAKNTVYFQMNSLKPEDTAVYYCAADGQYGGVPNTSEWTFDYWGQGTQVTVSS | low polyreactivity
QVHLVESGGGLVQAGGSLRLSCAASGSISVWYVIVWYRQAPGKERELVAAITRSGGSTFYADSVKGRFTISRDNAKNTVYLQMNSLKPEDTAVYYCAASFRDDFPQRLDYWGQGTQVTVSS | low polyreactivity
QVHLVESGGGLVQAGGSLRLSCAASGSLSVRNVMGWYSQAPGKERELVATIRRSGGSTSYADSVKGRFTISRDNSKNSVYLQMNSLKPEDTAVYYCAAVVYTTYRRYDYWGQGTQVNVSS | low polyreactivity
QVHLVESGGGLVQAGGSLRLSCAASGSNFKGNAMGWYRQAPGKERELVAAINRSGTSTYYADSVKGRFTISRDNAKKTVYLQMNSLKPEDTAVYYCAKKYFGHRFDYWGQGTQVTVSS | high polyreactivity
QVHLVESGGGLVQAGGSLRLSCAASGSTFGYNAMGWYRQAPGKVWELVAVISYSGGSPYYADSVKGRFTLSRDNAKNTVSLQMNSLKPADTAVYYCAKRALTSTRYRVKYDSWGQGTQVTVAS | high polyreactivity
QVHLVESGGGLVQAGGSLRLSCAASGSTFLGYAMGWYRQAPGKERELVAAISWSGGTTYYADSVKGRFTISRDNAKNTVYFQMISQKPEDTAVYYCNVYTRGRYEYWGQGTQVTVSS | low polyreactivity
QVHLVESGGGLVQAGGSLRLSCAASGSTFPVNAMGWYRQAPGKERELVAAIRSSTGRTYYADSVKGRFTISRDNAKNSVYLQMNSLKPEDTAVYNFAAEGDYYDFISPPLDYWGQGTQVTVSS | low polyreactivity
QVHLVESGGGLVQAGGSLRLSCAASGSTFRRYARAWYRQAPGKERELVAAITWRGGSTYYADSVKGRFTISRDNAKNTVYLQMNSLKPEDNAVYYCAADRYPYQYNYWGQGTLVTVSS | high polyreactivity
QVHLVESGGGLVQAGGSLRLSCAASGSTFRVYAMGWYRQAPGKERELVARISITGGTTRYADSVKGRFTISRDNAKNTVYLQMNSLKPEDTAVYYCNADYDWYYWYLYKYPFDYWGQGTQVTVSS | low polyreactivity
QVHLVESGGGLVQAGGSLRLSCAASGSTFSGYAMGWYRQAPGKERELVATITRRGGNTYYADSLKGRFTISRDNAKNTVYLQMNSLKPEDTAVYYCAKDGRVHSPYDYWGQGTQVTVSS | low polyreactivity
QVHLVESGGGLVQAGGSLRLSCAASGSTFVGYAMGWYRQAPGKERELVAAISGGDSTYYADSVKGRFTISRDNAKNTVYLQMNSLKPEDTAVYYCNADYGDTFEYDYWGQGTQVTVSS | low polyreactivity

— the nanobody polyreactivity screen of Harvey et al. (2022)
